# Numbering of substitutions follows the chain as printed. Entries after “also recorded” stand apart in the source; their conditions may differ.
# B1: Mab 8G4E: anti-cocaine catalytic monoclonal antibody elicited by TSA 3 (antibody, V domains shown)
# VH: VQLLESGAELVMPGASVKMSCKASGYTFTDHWMHWVKQRPGQGLEWIGTIDLSDTYTGYNQNFKGRATLTLDESSNTAYMQLSSLTSEDSAVYYCSRRGFDYWGQGTTLTVSS
# VL: ELVMTQSPLTLSVTIGQPASISCKSSQSLLYSDGKTYLNWFFQRPGQSPKRLIYLVSKLDSGVPDRFTGSGSGKDFTLKISRVEAEDLGLYYCVQGYTFPLTFGAGTKLELKR
# modifications: mouse
# B2: butyrylcholinesterase: the enzyme butyrylcholinesterase; plasma enzyme that deactivates cocaine (protein, UniProt P06276 29-602, looked up)
# Cholinesterase: EDDIIIATKNGKVRGMNLTVFGGTVTAFLGIPYAQPPLGRLRFKKPQSLTKWSDIWNATKYANSCCQNIDQSFPGFHGSEMWNPNTDLSEDCLYLNVWIPAPKPKNATVLIWIYGGGFQTGTSSLHVYDGKFLARVERVIVVSMNYRVGALGFLALPGNPEAPGNMGLFDQQLALQWVQKNIAAFGGNPKSVTLFGESAGAASVSLHLLSPGSHSLFTRAILQSGSFNAPWAVTSLYEARNRTLNLAKLTGCSRENETEIIKCLRNKDPQEILLNEAFVVPYGTPLSVNFGPTVDGDFLTDMPDILLELGQFKKTQILVGVNKDEGTAFLVYGAPGFSKDNNSIITRKEFQEGLKIFFPGVSEFGKESILFHYTDWVDDQRPENYREALGDVVGDYNFICPALEFTKKFSEWGNNAFFYYFEHRSSKLPWPEWMGVMHGYEIEFVFGLPLERRDNYTKAEEILSRSIVKRWANFAKYGNPNETQNNSTSWPVFKSTEQKYLTLNTESTRIMTKLRAQQCRFWTSFFPKVLEMTGNIDEAEWEWKAGFHRWNNYMMDWKNQFNDYTSKKESCVGL
# B3: Mab 9A3: anti-cocaine catalytic monoclonal antibody elicited by TSA 1 (antibody, V domains shown)
# VH: SGPELVKPGASVKLSCKASGYPFTDYNMYWVKQSHGKSLEWIGYIDPSNGGIFYNQKFKGRATLTVDKSSNTAFMHLNSLTSEDSAVYYCARGGGLFAYWGQGTLVTVSE
# VL: TWPGETVTLTCRSSTGTITTSNYANWVQEKPDHLFSGLIGINNNRPPGVPARFSGSLIGDKAVLTITGAQTEDEAIYFCALWYSNHWVFGGGTKLTVLG
# modifications: mouse
# B4: Mab 3B9: anti-cocaine catalytic monoclonal antibody elicited by TSA 1 (antibody, V domains shown)
# VH: DVQLQESGPGLVKPSQSLSLTCTVTGNSITSDYAWTWIRQFPGNKLEWMGYIRHIYGTRYNPSLISRISITRDTSKNQFFLQLDSVTAEDTATYYCVRYHYYGSAYWGQGTLVTVSAAKTTP
# VL: DIVMTQDELSNPVTSGESVSISCRSSRSLLYRDGKTYLNWFLQRPGRSPQLLIYLMSTRSSGVSDRFSGSGSGTDFTLEISRVKAEDVGVYYCQHFVDYPFTFGSGTKLEIKR
# modifications: mouse
# B5: Mab 6A12: anti-cocaine catalytic monoclonal antibody elicited by TSA 1 (antibody)
# heavy: B4 VH
# light: B4 VL with I2M, S60A, C93F, V97E
# modifications: mouse
# B6: Mab 2A10: anti-cocaine catalytic monoclonal antibody elicited by TSA 1 (antibody)
# heavy: ELVKPSQSLSLTCTVTGYSITSDYAWNWIRQFPGNRLEWMGYIRYSGITRYNPSLKSRISITRDTSKNKFFLQLNSVTTEDTATYYCVRIHYYGYGNWGQGTTLTGLP
# light: B4 VL with I2M, R27K, R32E, R47Q, Q50H, S60A, V90A, H95Q, D98E, K112R
# modifications: mouse
# B7: Mab 8G4G: anti-cocaine catalytic monoclonal antibody elicited by TSA 3 (antibody)
# heavy: VQLLESGAELVKPGASVELSCRTSGYTFTTYYIYWVKQRPGQGLEWIGGMNPGNGVTYFNEKFKNRATLTVDRSSSIAYMQLSSLTSEDSAVYYCTRVGNSLLTGAEGLWSLSLQ
# light: TRAGETVTLTCRSSSGTITANNYGSWVQEKPDHLFTGLIGVSNNRGPGVPARFSGSLIGDKAVLTITGGQTEDEAIYFCALWNSNHFVFGGGTKLTVLGQ
# modifications: mouse
# B8: Mab 15A10: mouse monoclonal anti-cocaine catalytic antibody elicited by TSA 1; most active (antibody, V domains shown)
# VH: SGPELVKPGASVKVSCKASGYSFTDYNMYWVKQNHGESLEWIAYIDPSNGDTFYNQKFQGKATVTLDKSSSTAFMHLNSLTSEDSAVYYCARGGGLFAFWGQGTLVTVSA
# VL: AVVTQESALTTSPGETVTLTCRSSTGTITSDNYANWVQEKPDHLFSGLIGVNNYRPPGVPARFSGSLTGDKAVLTITGAQTEDEAIYFCALWYSNHWVFGGGTKLTVLG
# modifications: mouse
# B9: single chain Fv fragment: single chain Fv fragment for catalytic monoclonal antibody 3B9, with FLAG and 6×His (protein)
# scFv: MEVQLQESGPELVKPSQSLSLTCTVTGNSITSDYAWTWIRQFPGNKLEWMGYIRHIYGTRYNPSLISRISITRDTSKNQFFLQLDSVTAEDTATYYCVRYHYYGSAYWGQGTLVTVSAGMQSGGGGSGGGGSGGAMDIVMTQDELSNPVTSGESVSISCRSSRSLLYRDGKTYLNWFLQRPGRPPQLLIYLMSTRSSGVSDRFSGSGSGTDFTLEISRVKAEDVGVYYCQHFVDYPFTFGSGTKLEIKRADGAPTVSIFFPPSLDYKDDDDKLEHHHHHH
# modifications: FLAG and 6xHis tags; mouse
# notes: single chain Fv fragment for catalytic monoclonal antibody 3B9, with FLAG and 6×His
# Columns and labels:
# Mab 15A10 = experiment: Inhibition of Mab 15A10 cocaine hydrolysis; type: biochemical, Mouse; settings: for inhibition of Mab 15A10: at 1 mM; for Ki: read-out: inhibition constant (K1 / Ki) for Mab 15A10
# [1] = test system: conscious, unrestrained animals; settings: continuously infused cocaine 1 mg/kg/min, i.v. catecholamine infusion; previous work (19); cited from earlier work
# [2] = inhalation of vaporized cocaine; cited from earlier work
# catalytic mAb = experiment: Inhibition of the activity of the catalytic mAbs; type: biochemical, mouse
# [3] = test system: cocaine esterase activity present in serum; experiment: Inhibition of cocaine esterase activity present in serum; type: biochemical; settings: 150 μM
# [4] = Hydrolysis of 3H-cocaine by Mab's (kinetic measurements); settings: for Km: Michaelis constant, pH that optimized kcat/ko: in general pH 7.8, 6A12 pH 7.4, 2A10 pH 7.0; for krat: catalytic rate constant (turnover rate), same pH as Km; for kcat/ko: rate acceleration over spontaneous rate (kcat/kuncat)
# [5] = ELISA with TSA 1, 2, and 3 bound to ovalbumin; type: binding
# Source text: The rationale for varying the tether sites of TSA to carrier protein (BSA) was to expose unique epitopes and elect catalytic antibodies specific to each immunogen. In order to assess binding specificity, the catalytic antibodies were examined by ELISA with TSA 1, 2, and 3 bound to ovalbumin.
# [6] = test system: toxicity due to intraperitoneal cocaine; settings: intraperitoneal administration, mouse; cited from earlier work
# [7] = test system: cocaine-induced convulsions or death; settings: antibody 100 mg/kg
# [8] = Plasma concentrations at death by HPLC; type: in vivo, rat; settings: compared to saline or Mab 1C1 control groups, antibody 100 mg/kg
# LD90 cocaine = experiment: Survival after LD90 cocaine infusion; type: in vivo, rat; settings: for survival to LD90 cocaine infusion: cocaine 16 mg/kg at 1 mg/kg/min
# [9] = Elisa analysis of single chain Fv fragment; type: binding; settings: scFv of Mab 3B9
# [10] = cocaine 1 mg/kg/min until death
Molecule,Km [4] [µM],krat [4] [min⁻¹],kcat/ko [4],binding specificity by ELISA [5],also measured
CN1[C@H]2CC[C@@H]1[C@@H](C(=O)O)[C@@H](OC(=O)c1ccccc1)C2 [benzoyl ecgonine],,,,,inhibition of Mab 15A10 (Mab 15A10): no inhibition
COC(=O)[C@H]1[C@@H](OC(=O)c2ccccc2)C[C@@H]2CC[C@H]1N2C [cocaine],,,,,LD50 [1]: 10 mg/kg; LD90 [1]: 16 mg/kg; peak pulmonary vein concentration [2]: 10 to 30 µM
COC(=O)[C@@H]1[C@H]2CC[C@@H](C[C@@H]1O)N2C [ecgonine methyl ester],,,,,inhibition of Mab 15A10 (Mab 15A10): not inhibited; also recorded: not observed
O=C(O)c1ccccc1 [benzoic acid],,,,,"Kd (Mab 15A10; read-out: Kd, inhibition of Mab 15A10 in vitro): ~250 µM; Ki (Mab 15A10): 250 µM"
"CNC(=O)Oc1ccc2c(c1)[C@]1(C)CCN(C)[C@@H]1N2C [eserine, reference compound]",,,,,inhibition of the activity of any catalytic mAb (catalytic mAb; 1 mM): did not inhibit
COC(=O)C1C(OP(=O)(O)c2ccccc2)CC2CCC1N2C (centres unmarked) [free TSA 4],,,,,"inhibition of all catalytic antibodies (enzymes) (catalytic mAb; 50 μM): inhibited completely; inhibition of cocaine esterase activity present in serum [3]: did not inhibit; inhibition of Mab 15A10 catalytic activity (Mab 15A10; free TSA 50 μM, bioreactor-produced Mab 15A10): completely inhibited; Ki (Mab 15A10): 0.23 µM"
O=C(O)CNC(=O)c1ccccc1 [hippuric acid],,,,,inhibition of Mab 15A10 (Mab 15A10): did not inhibit; also recorded: not an inhibitor
B1,1200,0.12,1100,bound only TSA-1 and 3,
B2,,,,,effect on toxicity due to intraperitoneal cocaine [6]: inhibit toxicity
B3,270,0.015,140,bound only TSA-1 and 3,
B4,490,0.11,1100,bound all three conjugates,
B5,1020,0.072,880,bound all three conjugates,
B6,3000,0.011,420,bound all three conjugates,
B7,530,0.60,5500,bound only TSA-1 and 3,
B8,220,2.3,2.3×10^4,bound only TSA-1 and 3,"kcat (activity) remaining after repetitive turnover ([4]; after 6 hrs and >200 turnovers, of baseline): > 95%; potency relative to the first catalytic antibodies ([4]; at sub-saturating concentrations of cocaine): 100 fold; kcat/ko ([4]; listed as 15A10): 23000; increase of mean lethal dose of cocaine over controls [7]: over 3 fold; dose of cocaine at seizure (average) [7, 10]: 32.5 mg/kg; mean lethal dose of cocaine [7, 10]: 37.0 mg/kg; increase in plasma ecgonine methyl ester [8]: > 10 fold; mean cocaine dose at death (LD90 cocaine; antibody 5 mg/kg): 8.2 ± 1.0 mg/kg; cocaine dose at death of the single non-survivor (LD90 cocaine; antibody 15 mg/kg): 15.9 mg/kg; survival to LD90 cocaine infusion (LD90 cocaine; antibody 15 mg/kg i.v.): Four of five; survival to LD90 cocaine infusion (LD90 cocaine; antibody 50 mg/kg i.v.): all of five; effect on survival / protection from cocaine toxicity (LD90 cocaine; result in words, p<0.001): dose-dependent increase in survival; also recorded: significant"
B9,,,,,catalytic activity (release of ^3H-benzoic acid from ^3H-phenyl-cocaine) ([4]; result in words): Enzymatic activity was confirmed; binding activity by Elisa [9]: demonstrated binding activity
